Measurements: paper PMC3589825, “The AFF4 scaffold binds human P-TEFb adjacent to HIV Tat” (eLife, 2013)
GABA = NCCCC(=O)O

B1: unlabeled AFF4(32–67) peptide (peptide)
peptide: SPLFAEPYKVTSKEDKLSSRIQSMLGNYDEMKDFIG
B2: AFF4(2–73) (domain or fragment, human, UniProt Q9UHB7 2-73, looked up)
chain: NREDRNVLRMKERERRNQEIQQGEDAFPPSSPLFAEPYKVTSKEDKLSSRIQSMLGNYDEMKDFIGDRSIPK
notes: source: E. coli Rosetta(DE3)pLysS, purified (His-Trap, TEV digest, His-Trap); not shown: His-tag, N-terminal, cleaved
B3: AFF4(2–363) (domain or fragment, human, UniProt Q9UHB7 2-363, looked up)
chain: NREDRNVLRMKERERRNQEIQQGEDAFPPSSPLFAEPYKVTSKEDKLSSRIQSMLGNYDEMKDFIGDRSIPKLVAIPKPTVPPSADEKSNPNFFEQRHGGSHQSSKWTPVGPAPSTSQSQKRSSGLQSGHSSQRTSAGSSSGTNSSGQRHDRESYNNSGSSSRKKGQHGSEHSKSRSSSPGKPQAVSSLNSSHSRSHGNDHHSKEHQRSKSPRDPDANWDSPSRVPFSSGQHSTQSFPPSLMSKSNSMLQKPTAYVRPMDGQESMEPKLSSEHYSSQSHGNSMTELKPSSKAHLTKLKIPSQPLDASASGDVSCVDEILKEMTHSWPPPLTAIHTPCKTEPSKFPFPTKESQQSNFGTGEQK
B4: fluorescein-labeled AFF4(32–67) peptide (peptide)
peptide: {FAM-GABA}-SPLFAEPYKVTSKEDKLSSRIQSMLGNYDEMKDFIG-NH2
notes: source: synthetic peptide (University of Utah DNA/Peptide Facility)

Key:
Settings in all cases: both partners purified
[1] = target: T1, Tat-P-TEFb complex (HIV-1 Tat 1–86, CDK9 1–330, cyclin T1 1–264) (human | HIV-1, UniProt P50750;O60563;P04608); assay: fluorescence polarisation; competition titration of unlabeled AFF4 segments against 5 nM fluorescent peptide with 75 nM CycT1, 45 nM P-TEFb or 6 nM Tat-P-TEFb; 25 mM HEPES pH 7.5, 100 mM NaCl, 10% glycerol, 0.1% NP40, 0.5 mM TCEP
T1 construct: also called P-TEFb-Tat; not shown: His-tag, N-terminal, cleaved; copies: + +

[2] = target: T2, cyclin T1 (CycT1), purified alone, wild type (human, UniProt O60563 1-264); assay: as above
T2 construct: source: purified

[3] = target: T3, P-TEFb (CDK9 1–330 / cyclin T1 1–264) (human, UniProt P50750 1-330; O60563 1-264); assay: as above
T3 construct: also called positive transcription elongation factor b; source: High5 insect cells (baculovirus), purified (His-Trap, TEV digest, His-Trap); not shown: His-tag, N-terminal, cleaved

[4] = target: T1, Tat-P-TEFb complex (HIV-1 Tat 1–86, …); assay: fluorescence polarisation
[5] = target: T2, cyclin T1 (CycT1), purified alone, wild …; assay: fluorescence polarisation
[6] = target: T3, P-TEFb (CDK9 1–330 / cyclin T1 1–264); assay: fluorescence polarisation

T3 sequence (P50750 1-330, chain 1 of 2): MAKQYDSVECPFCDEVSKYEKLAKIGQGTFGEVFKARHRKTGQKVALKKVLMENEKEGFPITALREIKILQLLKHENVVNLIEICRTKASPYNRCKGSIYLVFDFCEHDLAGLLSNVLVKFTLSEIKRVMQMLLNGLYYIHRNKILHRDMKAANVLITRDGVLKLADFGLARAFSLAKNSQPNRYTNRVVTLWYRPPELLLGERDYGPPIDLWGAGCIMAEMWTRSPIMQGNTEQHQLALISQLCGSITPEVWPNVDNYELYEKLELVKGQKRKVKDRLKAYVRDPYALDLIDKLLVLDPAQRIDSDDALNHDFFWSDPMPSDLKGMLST
T3 sequence (O60563 1-264, chain 2 of 2): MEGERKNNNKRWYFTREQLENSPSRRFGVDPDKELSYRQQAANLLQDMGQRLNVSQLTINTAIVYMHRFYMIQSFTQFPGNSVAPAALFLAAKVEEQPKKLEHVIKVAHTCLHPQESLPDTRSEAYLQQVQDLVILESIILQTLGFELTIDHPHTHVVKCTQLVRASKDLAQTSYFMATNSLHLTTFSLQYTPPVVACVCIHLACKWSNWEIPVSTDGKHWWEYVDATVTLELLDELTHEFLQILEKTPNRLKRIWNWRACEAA
T2 sequence (O60563 1-264): as the sequence (O60563 1-264, chain 2 of 2) above

Row | Binder | Kd [1] | Kd [2] | Kd [3] | Kd [4] | Kd [5] | Kd [6]
1 | B1 | 4.5 ± 0.6 nM | 102 ± 10 nM | 36 ± 4 nM |  |  | 
2 | B2 | 0.85 ± 0.15 nM | 130 ± 18 nM | 10 ± 1 nM |  |  | 
3 | B3 | 0.6 ± 0.1 nM |  | 7 ± 1 nM |  |  | 
4 | B4 |  |  |  | 8.8 ± 0.8 nM | 104 ± 17 nM | 36 ± 6 nM
